Data from publication PMC5418593.

What was measured:
[1] = target: T1, hEXOG wild type (hEXOG-dN58) (human, UniProt Q9Y2C4 59-368, del2-58); test: fluorescence anisotropy; 20 mM EDTA; apparent Kd; EK140: 20 mM HEPES pH 7.5, 140 mM KCl, 1 mM TCEP, 5% glycerol; plus 20 mM EDTA for anisotropy and EMSA (gel at 4 C, 0.5x TBE with 20 mM EDTA); ITC in EK140 at 20 C; conditions: protein: recombinant; tags: C-terminal His-tag; chain copies: 2; label: 3'-fluorescein; 10 bp duplex
[2] = target: T2, hEXOG-R314A (human, UniProt Q9Y2C4 59-368, R314A;del2-58); test: EMSA; 20 mM EDTA; apparent Kd; EK140: 20 mM HEPES pH 7.5, 140 mM KCl, 1 mM TCEP, 5% glycerol; plus 20 mM EDTA for anisotropy and EMSA (gel at 4 C, 0.5x TBE with 20 mM EDTA); ITC in EK140 at 20 C; conditions: protein: recombinant; tags: C-terminal His-tag; chain copies: 2; label: 5'-32P; 10 bp duplex
[3] = target: T1, hEXOG wild type (hEXOG-dN58); test: as above; conditions: protein: recombinant; tags: C-terminal His-tag; chain copies: 2; label: 5'-32P; 10 bp duplex
[4] = target: hEXOG-H140A (human, UniProt Q9Y2C4 59-368, H140A;del2-58); test: X-ray crystallography; 1.85 A; DNA in both active sites; EK140: 20 mM HEPES pH 7.5, 140 mM KCl, 1 mM TCEP, 5% glycerol; plus 20 mM EDTA for anisotropy and EMSA (gel at 4 C, 0.5x TBE with 20 mM EDTA); ITC in EK140 at 20 C; conditions: protein: recombinant; tags: C-terminal His-tag; chain copies: 2; 10 bp duplex; two duplexes per dimer
[5] = target: T2, hEXOG-R314A; test: fluorescence anisotropy; 20 mM EDTA; apparent Kd; EK140: 20 mM HEPES pH 7.5, 140 mM KCl, 1 mM TCEP, 5% glycerol; plus 20 mM EDTA for anisotropy and EMSA (gel at 4 C, 0.5x TBE with 20 mM EDTA); ITC in EK140 at 20 C; conditions: protein: recombinant; tags: C-terminal His-tag; chain copies: 2; label: 3'-fluorescein; 10 bp duplex
[6] = target: T1, hEXOG wild type (hEXOG-dN58); test: fluorescence anisotropy; 20 mM EDTA; apparent Kd (main text 6.2); EK140: 20 mM HEPES pH 7.5, 140 mM KCl, 1 mM TCEP, 5% glycerol; plus 20 mM EDTA for anisotropy and EMSA (gel at 4 C, 0.5x TBE with 20 mM EDTA); ITC in EK140 at 20 C; conditions: protein: recombinant; tags: C-terminal His-tag; chain copies: 2; label: 3'-fluorescein; 10 bp duplex

B1: 10 bp 5'OH-dsDNA, 3'-fluorescein (dsDNA)
DNA 1: CTGACGTGCG
DNA 2: CGCACGTCAG
modifications: 5'-OH
Kd [1]: 22.2 ± 5.1 nM

B2: 10 bp dsDNA, 5'-32P (dsDNA)
DNA 1: CTGACGTGCG
DNA 2: CGCACGTCAG
modifications: 5'-phosphate (32P)
Kd [2]: 26.5 ± 6.6 nM | Kd [3]: 3.4 ± 1.2 nM

B3: 10 bp DNA for crystallization (dsDNA)
DNA 1: CTGACGTGCG
DNA 2: CGCACGTCAG
modifications: 5'-phosphate on one strand only
binding result [4]: binds

B4: 10 bp 5'P-dsDNA, 3'-fluorescein (dsDNA)
DNA 1: CTGACGTGCG
DNA 2: CGCACGTCAG
modifications: 5'-phosphate on one strand
Kd [5]: 35.7 ± 7.2 nM | Kd [6]: 6.25 ± 2 nM
